Drawing on patent publication US20240287160A1, this text covers half maximal inhibitory concentration (IC50), neutralization of VSV/EBOV GP for two molecules.

The assay addresses EBOV GP on infectious virus (Ebola virus , Mayinga) (UniProt Q05320). As to the kind of experiment: cell-based or functional assay.
Sequence of UniProt Q05320 (Q05320 33-676): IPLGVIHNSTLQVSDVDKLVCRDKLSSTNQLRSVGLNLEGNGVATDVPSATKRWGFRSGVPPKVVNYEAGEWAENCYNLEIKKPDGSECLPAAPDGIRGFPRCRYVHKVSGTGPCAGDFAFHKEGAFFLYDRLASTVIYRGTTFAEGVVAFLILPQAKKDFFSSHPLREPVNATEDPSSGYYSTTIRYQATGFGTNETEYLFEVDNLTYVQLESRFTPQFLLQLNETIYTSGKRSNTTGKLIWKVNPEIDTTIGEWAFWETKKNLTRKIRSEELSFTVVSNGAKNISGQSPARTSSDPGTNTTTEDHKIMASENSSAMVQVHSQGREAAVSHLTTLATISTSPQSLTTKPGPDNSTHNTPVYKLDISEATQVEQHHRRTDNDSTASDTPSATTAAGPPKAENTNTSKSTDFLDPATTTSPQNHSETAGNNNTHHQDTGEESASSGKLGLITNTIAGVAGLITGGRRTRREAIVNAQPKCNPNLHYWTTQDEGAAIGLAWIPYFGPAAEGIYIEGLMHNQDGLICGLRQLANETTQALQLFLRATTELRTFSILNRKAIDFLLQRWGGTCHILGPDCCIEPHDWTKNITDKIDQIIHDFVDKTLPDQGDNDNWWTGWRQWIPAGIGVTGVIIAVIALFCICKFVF

B1: rEBOV-442 IgG1 (antibody, V domains shown)
VH: EVQLVESGGGLVKPGGSLRLSCTGSGGTGFTFKYAGMSWVRQAPGKGPEWIGRIKSRIDGGTTDYAAPVKDRFIVSRDDSRNTLYLQMNSLKTEDTAVYYCATGSGKGPSASFGESYYYYDFINVWGKGTTVTVSS
VL: ESVLTQSPGTLSLSPGERATLSCRASQSISRKYLAWYQQKPGQAPRLLIYGSSSRATGIPDRFSGSGSGTDFTLTISRLEPEDFAVYYCHQYESSPWTFGQGTKVEIK
In turn, B1 came in with a half maximal inhibitory concentration (IC50), neutralization of VSV/EBOV GP of under 1.5 µg/mL.

B2: rEBOV-515 (recombinant wild-type IgG1) (antibody, V domains shown)
VH: QVQLHESGPGLVKPSQTLSLTCTVSGGSINSAGYYWTWIRQHPGKGLEWIGYIDYTGRTYYNPSLESRVIISIDTSKNHFSLRLTSVSAADTAVYYCARESSWVSELGRDNWGQGTLVTVSS
VL: EIVMTQSPATLPVSPGEGATLSCRASQSVFTNLAWYQQKPGQAPRLLIYDASTRATGIPARFSGSGSGTEFTLTISSLQSEDFAVYYCQQYNNWPRTYGQGTRVEVK
Turning to B2, the half maximal inhibitory concentration (IC50), neutralization of VSV/EBOV GP is under 1.5 µg/mL.
